Test results as given in the supplement of paper PMC7125110.
± gives the standard error. Fewer inactive variants are shown than the library holds.

B1: glmS ribozyme (parent)
chain: AUAAAAGCGCCAGAACUACAGAAAUGUAGUUGACGAGGAGGAGGUUUAUCGAAUUUUCGGCGGAUGCCUCCAAA

Columns and labels:
Conditions in all cases: with glucosamine-6-phosphate
glucosamine-6-phosphate [1] = variants of: B1; experiment: self-cleavage kobs at 640 uM GlcN6P; higher = faster cleavage; RNA array
Summary of the method: (§1)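 Tracking of barcoded ribozyme variants used a hybridised Cy3 probe at 37 °C, after in situ transcription by E. coli RNA polymerase on sequenced MiSeq chips. The flowed solution held 40 μM to 10 mM glucosamine-6-phosphate in HEPES/KCl/Mg(OAc)2 buffer, and imaging ran over ~14 h. kobs was taken from exponential decay fits of normalised per-tile medians, and kcat and KM from weighted Michaelis–Menten fits.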

glucosamine-6-phosphate [2] = variants of: B1; experiment: self-cleavage kobs at 2500 uM GlcN6P; higher = faster cleavage; RNA array
Summary of the method: as §1

glucosamine-6-phosphate [3] = variants of: B1; experiment: self-cleavage kobs at 10000 uM GlcN6P; higher = faster cleavage; RNA array
Summary of the method: as §1

| Variant | self-cleavage kobs at 640 uM GlcN6P (glucosamine-6-phosphate [1]) [s⁻¹] | self-cleavage kobs at 2500 uM GlcN6P (glucosamine-6-phosphate [2]) [s⁻¹] | self-cleavage kobs at 10000 uM GlcN6P (glucosamine-6-phosphate [3]) [s⁻¹] |
| --- | --- | --- | --- |
| C8U G9U C68A | < 1e-05 | < 1e-05 |  |
| G9A C11A A14G C34G G35U A36U A48U U55C C67G U69C | < 1e-05 |  |  |
| C8U A15C G32U | < 1e-05 | < 1e-05 |  |
| G9C A53U C70A | < 1e-05 |  |  |
| C8G G32A U57G C67U | < 1e-05 |  |  |
| C8U U49A U69G | 0.000871 ± 0.00023 | 0.000796 ± 0.00037 |  |
| C8U A14C G32A | < 1e-05 | < 1e-05 |  |
| C8U A15U A48C A52C C70U | < 1e-05 |  |  |
| G9U A15C A42U | < 1e-05 |  |  |
| C8U G29A G37A A39U C61U A64C | < 1e-05 |  |  |
| C8G G32C A33U C67U | < 1e-05 | < 1e-05 |  |
| G9U C10U C11A | < 1e-05 |  |  |
| C8U U30A U31C A48U C68U | < 1e-05 | < 1e-05 |  |
| C8U A39U G59C | < 1e-05 |  |  |
| C8G G13U U55C C58U | < 1e-05 | < 1e-05 |  |
| C8G C11U A15U U57G | < 1e-05 |  |  |
| C8U G9U A15C G44U | < 1e-05 | < 1e-05 |  |
| G9A G62U G66U | < 1e-05 | < 1e-05 |  |
| G9A G35A C58U C71U | < 1e-05 |  |  |
| G9C C10G A14G G41U A64C | < 1e-05 | < 1e-05 |  |
| G9C A12C G13U G44U C67A | < 1e-05 |  |  |
| C10A A64U U69G | 0.000351 ± 0.00014 |  |  |
| C8U A14C A15C | < 1e-05 |  |  |
| G9C U30A U49C U56G | < 1e-05 |  |  |

| Variant | self-cleavage kobs at 640 uM GlcN6P (glucosamine-6-phosphate [1]) [s⁻¹] | self-cleavage kobs at 2500 uM GlcN6P (glucosamine-6-phosphate [2]) [s⁻¹] | self-cleavage kobs at 10000 uM GlcN6P (glucosamine-6-phosphate [3]) [s⁻¹] |
| --- | --- | --- | --- |
| C8G G59U G66U | < 1e-05 |  |  |
| C10A C16A C68A | 0.000126 ± 4.7e-05 |  |  |
| C10A A36C U46A | < 1e-05 | < 1e-05 | < 1e-05 |
| G9U G35C A42U U45A C70A | < 1e-05 |  |  |
| C8U C58U | < 1e-05 |  |  |
| G9A G29A G63U | < 1e-05 | < 1e-05 |  |
| C8U C16G A52U U65G G66A | < 1e-05 | < 1e-05 |  |
| C8U C34G A39G G44U | < 1e-05 |  |  |
| C8G C58A U65G C71A | < 1e-05 |  |  |
| G9U C19A G62U G63U | < 1e-05 |  |  |
| C8U A12C U49A | < 1e-05 |  |  |
| G9U G32A G43C | < 1e-05 |  |  |
| C10A G51C A52U C70U | < 1e-05 |  |  |
| C8G G43A | < 1e-05 | < 1e-05 |  |
| G9U G13C G43A | < 1e-05 |  |  |
| G9U C58G G59C | < 1e-05 | < 1e-05 |  |
| C8G U57G G59A | < 1e-05 | < 1e-05 |  |
| C8G G9U C10G | < 1e-05 |  |  |
| G9U U30C U65G C70U | < 1e-05 |  |  |
| C8U A53G U55A C68G | 0.000442 ± 0.00017 |  |  |
| G9A G32C C61U | < 1e-05 |  | < 1e-05 |
| G9C C70G | < 1e-05 |  | < 1e-05 |
| C10A U47G | < 1e-05 | < 1e-05 |  |
| G9U G29C G41A | < 1e-05 | < 1e-05 | < 1e-05 |

| Variant | self-cleavage kobs at 640 uM GlcN6P (glucosamine-6-phosphate [1]) [s⁻¹] | self-cleavage kobs at 2500 uM GlcN6P (glucosamine-6-phosphate [2]) [s⁻¹] | self-cleavage kobs at 10000 uM GlcN6P (glucosamine-6-phosphate [3]) [s⁻¹] |
| --- | --- | --- | --- |
| G9A C10A G13C G29C | < 1e-05 | < 1e-05 |  |
| G9U G32C A42G U45G | < 1e-05 | < 1e-05 |  |
| G9U U45G A52G | < 1e-05 |  |  |
| C10A A53G C70G | 0.000157 ± 4.8e-05 | 0.000151 ± 4.6e-05 |  |
| G9C A15U G26U G63C | < 1e-05 |  |  |
| C8G C16G G38A | < 1e-05 |  |  |
| G9A G60A C68G | < 1e-05 |  |  |
| C8U A15C G35C C68U | < 1e-05 |  |  |
| G9A A48U C50A | < 1e-05 |  |  |
| C8U G37U C71G | 0.000584 ± 0.00027 |  |  |
| C8U G32U C68A | < 1e-05 |  |  |
| C10A C61G C67G C71G | 0.000346 ± 8.8e-05 | 0.000167 ± 8.1e-05 |  |
| C10A C16U G35A | < 1e-05 | < 1e-05 |  |
| C10A G41C A48U | < 1e-05 | < 1e-05 |  |
| C8U U30A A39U | < 1e-05 | < 1e-05 |  |
| C8G G13C G38U C50G | 4.5e-05 ± 2.2e-05 |  |  |
| C10A C11G G35C G44C | < 1e-05 | < 1e-05 |  |
| G9A U45C A53U G60C | < 1e-05 |  |  |
| C10A G62U C70G | 9.92e-05 ± 3.7e-05 | 0.000143 ± 4.8e-05 |  |
| C8G G43A C67A | < 1e-05 |  |  |
| G9C G29A G41A | < 1e-05 | < 1e-05 |  |
| C10G A15C | < 1e-05 |  | < 1e-05 |
